Test results as given in US20040235749A1 (HOSPITAL SAINTE JUSTINE, published 2004).
Non-standard residues stand in square brackets, D forms with d. No end group written: not given here. dCha = N[C@H](CC1CCCCC1)C(=O)O

B1: PCP-13.20 (peptide)
peptide: [dI][dL]G[dH][dR][dD][dY]-NH2
modifications: N-terminus assumed
SMILES: CC[C@@H](C)[C@@H](N)C(=O)N[C@H](CC(C)C)C(=O)NCC(=O)N[C@H](Cc1c[nH]cn1)C(=O)N[C@H](CCCNC(=N)N)C(=O)N[C@H](CC(=O)O)C(=O)N[C@H](Cc1ccc(O)cc1)C(N)=O
B2: PCP-13.21 (peptide)
peptide: [dI][dL]G[dH][dR][dD][dY][dK]-NH2
modifications: N-terminus assumed
SMILES: CC[C@@H](C)[C@@H](N)C(=O)N[C@H](CC(C)C)C(=O)NCC(=O)N[C@H](Cc1c[nH]cn1)C(=O)N[C@H](CCCNC(=N)N)C(=O)N[C@H](CC(=O)O)C(=O)N[C@H](Cc1ccc(O)cc1)C(=O)N[C@H](CCCCN)C(N)=O

target: FP receptor in porcine tissue (retinal microvessels, uterine myometrium) (pig); experiment: cell-based or functional assay

Binder | % Inhibition of Maximal Response, 100 µM peptide, 10^-7 M PGF2α, porcine eyecup [%] | % Vasomotor Response (of maximum constriction), 100 µM peptide, 10^-7 M PGF2α, porcine eyecup [%]
ILGHRDYK [PCP-8] | 50 | 50
WEDRFYLL [PCP-10] | 80 | 20
[dY][dQ][dD][dR][dF][dY][dL][dL] [PCP-14] | 64 | 36
[dI][dL]G[dH][dR][dD][dY][dK] [PCP-13] | 80 | 20
[dI][dL][dA][dH][dR][dD][dY][dK] [PCP-13.7] | 76.2 | 23.8
[dI][dL]A[dH][dR][dD][dY][dK] [PCP-13.8] | 53.2 | 46.8
[dI][dL]G[dF][dR][dD][dY][dK] [PCP-13.11] | 87 | 13
[dI][dL]G[dH][dK][dD][dY][dK] [PCP-13.13] | 63.1 | 36.9
[dI][dL]G[dH][dQ][dD][dY][dK] [PCP-13.18] | 70 | 30
B1 | 50.4 | 49.6
B2 | 53.8 | 46.2
[dI][dL]G[dW][dR][dD][dY][dK] [PCP-13.22] | 83.4 | 16.6
[dI][dL]G[dCha][dR][dD][dY][dK] [PCP-13.24] | 93.8 | 6.2
[dS][dN][dV][dL][dC][dS][dI][dF] [PCP-15] | 88.1 | 11.9

target: PAF receptor in porcine retinal microvessels (pig, UniProt Q9XSD4 1-342); experiment: cell-based or functional assay
Sequence (Q9XSD4 whole entry): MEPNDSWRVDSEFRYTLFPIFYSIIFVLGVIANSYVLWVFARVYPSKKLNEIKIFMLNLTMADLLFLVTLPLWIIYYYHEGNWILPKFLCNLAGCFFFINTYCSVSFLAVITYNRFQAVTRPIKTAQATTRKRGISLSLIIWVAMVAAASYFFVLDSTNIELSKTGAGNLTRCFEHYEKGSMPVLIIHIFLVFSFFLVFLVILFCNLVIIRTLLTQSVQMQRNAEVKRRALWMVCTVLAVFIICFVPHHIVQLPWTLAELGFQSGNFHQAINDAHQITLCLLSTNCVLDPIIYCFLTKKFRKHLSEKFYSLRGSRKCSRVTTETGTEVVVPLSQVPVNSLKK

Binder | IC50, C-PAF induced retinal vasomotor responses, porcine eyecup [nM]
[dL][dV][dP][dV][dS]G[dK][dE][dY] [SEQ ID NO:85] | 134

target: Urotensin receptor (GPR14) in porcine tissue (retinal microvessels, aortic strips) (pig); experiment: cell-based or functional assay

Binder | IC50, U-II (1 µM) mediated contractility of retinal microvessels [nM]
[dV][dI][dR][dA][dT][dR][dP][dA][dL] [SEQ ID NO:79] | 115
